From the nanobody polyreactivity screen of Harvey et al. (2022)

Experiment: yeast display, Sf9 membrane polyspecificity reagent, FACS + sequencing; frameworks hold sequencing errors
Outline: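 A nanobody's polyreactivity label depends on the gate it was sorted from. Yeast display cells were stained with 10% biotinylated, detergent-solubilized Sf9 membrane reagent for 1 hour at 4 °C, enriched on streptavidin microbeads and sorted by FACS. The low and high (top ~1%) gates were set on anti-HA fluorescence for expression and streptavidin fluorescence for reagent binding.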

Row | Sequence | polyreactivity (PSR sort gate)
1 | QVQLVESGGGLVQAGGSLRLSCAASGSTFYIYAMGWYRQATGKERELVAAIDWNDGSTYYADSVKGRFTISRDNAKNTVYLEMHSLKPEDTAVYYCAAAIYIYRDGTYDYWGQGTQETVSS | high polyreactivity
2 | QVQLVESGGGLVQAGGSLRLSCASSGRTSLGYVMGWYRQAPGKERELVAAITKSGGSTYYADSVKGRFTISRDNAKNTVYLQMNSQKPEDTAVYYCAARNPWSARYEYWGQGTQVTVSS | high polyreactivity
3 | QVQLEESGGGLVQAGGSLRLSCAASGSIIGPNAMGWYRQAPGKDRELVAAITSGSSTKYADSVKGRFTISRDNAMNTVYLQMNSLKPEDTAVDYCAASGTTTWKYGFWGQGTQVTVSS | low polyreactivity
4 | QVQLVESGGGLVQAGGSLRLSCAPSGRIFKYNAMGWYRQAPGKERELVAAITSSGASTYYADSVKGRFTISRDIAKHTVYLQMNSLKPVVTAVYYCAARARRKYDYWGQGTQVTLSS | high polyreactivity
5 | QVQLVESGGGLVQAGGSLRLSCAASGRIFYPYAMGWYRQAPGKERELVASITSGGGTYYADSVKGRFTISRDNAKNTVYLQMNSLKPEDTAVYYCAAKYYTSWIRYDYWGQGTQVTVSS | low polyreactivity
6 | QVQLQESGGGLVQAGGSLRLSCAASGYISTFSSEMGWYRQAPGKERELVASIAPGCTTSYADSVKGRFTISRDNAKNTVYLQMNSLKPEDTAVYYCAVDYTVPASFGYWGQGTQVTVSS | high polyreactivity
7 | QVQLVESGGGLDHAGGSLRLSCAASGYTLTDYVMGWYRQAPGKQRELVAAIDWRDGTTYADSVKGRFTISRDNAKNTVYLQFNILKPEDTAVYFCGTDELLTSPRYPEYDYWGQGTQVTVSS | low polyreactivity
8 | QVQLVESGGGLDQAGGSLRLSCAASGRTFGGYAMGWYRQAPGKERELVARISRSGGSTYYADSVKGRFTISRDNAKNTVYFQMNSLKPEDTAVYYCNTGLRTAYGWPQDDYWGQGTQVTVSS | low polyreactivity
9 | QVQLVESGGGLVQAGGSLRLSCAASGSIFRTNAMGWYRQAPGKERELVAAISSGDRTYYADSVKGRFTISRDNAKNTVYLQMNSLKPEDTAVYYCAARGYSATVYAGTYDYWGQGTQVTVSS | low polyreactivity
10 | QVQLVESGGGLVQAGGSLRLSCAASGFTFRLNAMGWYRQAPGKERELVAAITRSGGNTYYADSVKGRFTISRDNAKNTVYLQMNSLKPEDTAVYYCAVRQLDRRSPKYNYWGQGTQVTVSS | high polyreactivity
11 | QVQLVESGGGLVQAGGSLRLICADSGSTFTGNAMGWYRQAPGKERELVAAISRSGGRTYYADSVKGRFTISRDNAKNTVYLQMNSLKPEDTAVYYCNAVRNRGQRTAFDYWGQGTQVTVSS | high polyreactivity
12 | QVQLVESGGGLVQAGGSLRLSCAASGFTFRVYAMGWYRQAPGKERELVASITWSGASTYYADSVKGRFTISRDNAKNTVYLQMNSLKPEDTAVYYCAAKYSDYQYGRYYYWGQGTQVTVSS | high polyreactivity
13 | QVQLVESGGGIVQAGGSLRLSCAASGSNFYANPMGWYRQAPGKERELVAAITRSGAGTYYADSVKGRFTISRDNAKNTVYLQMNSLKPEDTAVYDCAKRTKTPTGYDWGGYDYWGQGTQVTVSS | high polyreactivity
14 | QVQLVESGGGLVQAGGSLRLSCAASGITFARYTMGWYRQAPGKERELVAAITWSGGRTYYADSVKGRFTISRDNAKNTVYLQMNSLKPEDTAVYYCNVDLGRYGTSSGASVGYGDYDYWGQGTQVTVSS | high polyreactivity
15 | QVQLVESGGGLVQAGGSLRLSCAASGRTFRKYAMGWYRQAPGKERELVAAISWSGGSTYYANSVKGRFTISRVNAKNTVYLQMNSLKPEDTAVYYCAAVPVDTGSLYWGFTTGYDYWGQGTQVTVSS | low polyreactivity
16 | QVQLVESGGGLVQAGGSLRLSCAASGSTFCDNAMGWYRQAPGNERELVAAISMSGGRTYYADSVKGRFTISRDNAKNTVYLQMNSLKPEDTAVYYCAAVGNRRYYFGYDYWGQGSQVTVSS | high polyreactivity

Row | Sequence | polyreactivity (PSR sort gate)
17 | QDQLVESGGGLVQAGGSLRLSCAAYGNTIIRYAMGWYRQAPGKERELVAAIAYSGGRTYYADSVKGRFTISRDNAKNTVFLQMNSLKPEDTAVYYCNAASRYGGDYWGQGTQVTVSS | high polyreactivity
18 | QVQLVESGGGLVQAGGSLRLSCAASGSIFGNAMGWYRQAPGKERELVAAISRRGGRTYYADSVKGRFTISRDNAKNTVYLQMNSLKPEDTAVYYCNKYVTPWNEMDYWGQGTQVTVSS | high polyreactivity
19 | QVQLVESGGGLVQAGGSLRLSCAASGSIFVYNAMGRYRQAPGKEREYVAAITYSGGSTYYADSVKGRFTISRDNAKNTVDLQMNSLKPEDTAVYYCAADYFQHVPKYGYWGQGTQVNVSS | low polyreactivity
20 | QVQLVESGGGLVQAGGSLRLSCAASGSTFYVYAMGWYRQAPGKERELVAAITTGGSTYYADSVKGRFTISRDNAKNTVYLQMNSLKPEDTAVYYCAADDPDPYDVPSYDYWGQGTQVTVSS | low polyreactivity
21 | QVQLVESGGGLVQAGGSLRISCAASGSIFGYYAMGWYRHSPGTERELVAAISWSDGSTYYADSVKGRFTISRDNAKNTVYLQMNSLKPEDTAVYYCAARFTPYITSDDGHYDYWGQGTQVTVSS | low polyreactivity
22 | QVQLVESGGGLVQAGGSLRLSCAASGFIFSNNAMGWYRQAPGKERELVAAITASGGRTYYADSVKGRFTISRDNAKNTVYLQMNSLKPEDTSVYYCAAALYDIMGYWGQGTQLTVSS | high polyreactivity
23 | QVQLVESGGGLVQAGGSLRLSCAASGRIFYVYAMGWYRQAPGKERELVAAITISGGSTYYADSVKGRFTISRDNAKNTVYLQMNSLKPEDTAVYYCAAGTQAHAYVVRPIEMDYWGQGTQVTVSS | low polyreactivity
24 | QVQLVESGGGLVQAGGSLRLSCAASGGIFYSYAMGWYRQAPGKEREFVAAIRRSGGRTYYADSVKGRFTISRDNAKNTVYLQMNSLKPEDTAVYYCAADGWYSGGHDYWGQGTQVTVSS | high polyreactivity
25 | QVQLVESGGGLVQAGGSLRLSCAASGITFPRYAMGWYRQAPGKERELVARISWGGGRTYYADSVKGRFTISRDNAKNTVYLPMNSLKPEDTAVYYSAARTWADPYGYWGQGTQVTVSS | high polyreactivity
26 | QVQHVESGVGLVQAGGSLRLSCAASGSIFVHNAMGWYRQAPGKERELVAGISARAASTYYADSVKGRFTISRDNAKNTVYLQMNSLKPEDTAVYYCAADRIPGYRVYGFYYWGQGTQVTVSS | low polyreactivity
27 | QVQLVESGGGLVQAGGSLRITCAASASIYYRYAMGWNRQAPGKERELVAAITYSGGSTYYADSVKGRFTISRDNAKNPVYLQMNSLKPEDTAVYYCAKDYPPPISDYSRYYGYGYWGQGTQVTVSS | low polyreactivity
28 | QVQLVESGGGLVQAGGSLRLSCAASGSTFVRYAMGWYRQAPGKERELVAAISRRGSSTYYADSVKGRFTISRDNAKNTVYLQMNSRKPEDTADYYCAVDYSPGFDDYDYWGQGTHVTVSS | high polyreactivity
29 | QVQLVESGGCLVQAGGSLRLSCAASGSIFPPYAMGWYIPAPGKERELVAAISRRGGSTYYADSVKGRFTISRDNAKNTVYLQMNSLKPEDTAVYYCAARGGQMEYWGQGTQVTVSS | high polyreactivity
30 | QVPLVESGGGLVQAGGILRLSSAASGFIFTYYAMGWYRQAPGKERELVAAISASGGSTYYADSVKGRFTISRDYAKNTVYIQLYSLEPEDSSVYYCNKLYQQRAWETFSWGGYWGQGTQVTVSS | high polyreactivity
31 | QVQLVESGGGLVQAGGSLRLSCAASGFIFSYYALGWYRQATGKERELVAAITYSGVRTYYADSVKGRFTISRDNAKNTVYLQMNSLKPVDTAVYYCNTKHRTKPTRPDDYWGQGTQVTVSS | high polyreactivity
